This is an account of results in the Human Domainome abundance scans (Beltran et al. 2025).

± gives the uncertainty stated by the source.

To fix the notation:
B1: E3 ubiquitin-protein ligase NEDD4-like, residues 539 to 589; numbered along this chain, Q96PU5 (parent)
chain: KTSLNPNDLGPLPPGWEERIHLDGRTFYIDHNSKITQWEDPRLQNPAITGP

The variants in this data set derive from B1. Description: abundance fitness (aPCA) (normalised: wild type 0, dead -1); higher = more abundant; growth selection in yeast, the domain comes from the species named. The settings on record: Homo sapiens.
In the case of N5P, the abundance fitness was -0.487 ± 0.062.

With N5T, the abundance fitness is -0.203 ± 0.057.

As for N5Y, the abundance fitness was -0.259 ± 0.11.

In the case of N5I, the abundance fitness is -0.256 ± 0.12.

As to N5Q, the abundance fitness was -0.267 ± 0.085.

With N5V, the abundance fitness was -0.075 ± 0.061.

Consider N5K, for which the abundance fitness was -0.247 ± 0.072.

Consider T2E, for which the abundance fitness was -0.1 ± 0.061.

On to T2S, for which the abundance fitness is -0.023 ± 0.046.

Regarding T2N, the abundance fitness was determined as 0.374 ± 0.11.

Regarding T2G, the abundance fitness was -0.308 ± 0.056.

Take T2H: the abundance fitness is -0.385 ± 0.15.

Consider T2L, for which the abundance fitness is -0.158 ± 0.054.

Regarding T2F, the abundance fitness was 0.31 ± 0.09.

On to T2Y, for which the abundance fitness is -0.001 ± 0.069.

T2V: the abundance fitness was -0.344 ± 0.058.

As to T2D, the abundance fitness was 0.142 ± 0.084.

On to T2P, for which the abundance fitness was -0.341 ± 0.061.

Consider T2R, for which the abundance fitness is -0.365 ± 0.069.

For T2A, the abundance fitness is -0.223 ± 0.051.

T2K: the abundance fitness is -0.066 ± 0.072.

Consider T2W, for which the abundance fitness was -0.699 ± 0.062.

Regarding T2Q, the abundance fitness was -0.024 ± 0.096.

As for T2C, the abundance fitness is -0.181 ± 0.3.

As to T2I, the abundance fitness is 0.067 ± 0.06.

On to K1S, for which the abundance fitness is -0.19 ± 0.068.

For the variant K1T, the abundance fitness was -0.328 ± 0.055.

K1H: the abundance fitness is -0.704 ± 0.28.

On to K1V, for which the abundance fitness is -0.885 ± 0.25.

As to K1I, the abundance fitness is -0.062 ± 0.2.

As to K1N, the abundance fitness is -0.041 ± 0.12.

With K1E, the abundance fitness is -0.473 ± 0.48.

On to K1W, for which the abundance fitness is -1.08 ± 0.2.

On to K1L, for which the abundance fitness is -0.313 ± 0.045.

Regarding K1D, the abundance fitness was -0.201 ± 0.12.

As to K1G, the abundance fitness was -1.01 ± 0.27.

Turning to K1R, the abundance fitness was -0.12 ± 0.097.

Take K1A: the abundance fitness is -0.774 ± 0.27.

For the variant P6F, the abundance fitness is -0.123 ± 0.11.

As to P6D, the abundance fitness amounted to 0.159 ± 0.051.

For the variant P6I, the abundance fitness turned out to be 0.077 ± 0.099.

Consider P6G, for which the abundance fitness came to 0.027 ± 0.053.

For P6E, the abundance fitness stood at 0.057 ± 0.048.

Regarding P6H, the abundance fitness is -0.237 ± 0.12.

Take S3N: the abundance fitness came out at 0.093 ± 0.065.

Consider S3L, for which the abundance fitness was -0.345 ± 0.061.

Take S3M: the abundance fitness was -0.193 ± 0.084.

As for S3E, the abundance fitness is -0.363 ± 0.071.

As for S3P, the abundance fitness is -0.308 ± 0.038.

For the variant S3R, the abundance fitness is -0.338 ± 0.042.

Turning to S3H, the abundance fitness is -0.223 ± 0.047.

As to S3I, the abundance fitness is -0.162 ± 0.11.

Turning to S3G, the abundance fitness was -0.353 ± 0.041.

On to S3V, for which the abundance fitness is -0.353 ± 0.043.

As to S3T, the abundance fitness was -0.175 ± 0.041.

S3Y: the abundance fitness is -0.046 ± 0.081.

On to S3K, for which the abundance fitness was -0.264 ± 0.08.

As for S3A, the abundance fitness was -0.412 ± 0.047.

On to S3D, for which the abundance fitness was -0.085 ± 0.064.

Take S3C: the abundance fitness is -0.339 ± 0.1.

In the case of S3W, the abundance fitness was -0.86 ± 0.086.

S3Q: the abundance fitness was -0.427 ± 0.07.

Turning to L4F, the abundance fitness was -0.003 ± 0.081.

Consider L4W, for which the abundance fitness is -0.283 ± 0.045.

As to L4V, the abundance fitness is -0.139 ± 0.044.

For L4K, the abundance fitness stood at 0.116 ± 0.066.

As to L4P, the abundance fitness is -0.281 ± 0.061.

As for L4S, the abundance fitness was -0.07 ± 0.048.

Turning to L4D, the abundance fitness is -0.108 ± 0.073.

For the variant L4H, the abundance fitness was -0.242 ± 0.1.

As for L4I, the abundance fitness was -0.136 ± 0.1.

Take L4N: the abundance fitness is -0.295 ± 0.094.

On to L4C, for which the abundance fitness was -0.252 ± 0.056.

Take L4T: the abundance fitness was -0.303 ± 0.071.

In the case of L4Q, the abundance fitness is -0.024 ± 0.081.

In the case of L4Y, the abundance fitness is -0.105 ± 0.1.

For the variant L4E, the abundance fitness was -0.143 ± 0.076.

With L4G, the abundance fitness was -0.12 ± 0.043.

As for L4R, the abundance fitness was -0.241 ± 0.047.

Turning to L4A, the abundance fitness was -0.205 ± 0.046.
